Laboratory results: the supplement of paper PMC10724198
± gives the standard deviation of the averaged measurements.

What was measured:
[1] = tested on: Saccharomyces cerevisiae; assay: protein stability index of tFT-peptide fusion (C-terminal peptide) (PSI (0-1 scale)); higher = more stable (slower turnover); settings: genetic background: wild type; temperature: 30 C
[2] = tested on: Saccharomyces cerevisiae; assay: as above
Method: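 MPS profiling in S. cerevisiae of the tFT-X12 degron library: putative degron peptides plus stable controls, 12 aa, fused to the C-terminus of a sfGFP-mCherry timer. Cells are FACS-sorted into 8 mCherry/sfGFP bins and deep-sequenced. PSI runs from 0 (unstable) to 1 (stable). Backgrounds are wild type, das1Δ and doa10Δ at 30 °C, and wild type, das1Δ, cdc34-1 and cdc53-1 at 37 °C; 2-3 technical replicates each.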

[3] = genetic background: cdc34-1, temperature: 37 C
[4] = genetic background: cdc53-1, temperature: 37 C
[5] = genetic background: das1 deletion, temperature: 30 C
[6] = genetic background: das1 deletion, temperature: 37 C
[7] = genetic background: doa10 deletion, temperature: 30 C
[8] = genetic background: wild type, temperature: 30 C
[9] = genetic background: wild type, temperature: 37 C
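Note: PSI is a weighted mean of sequencing reads over stability bins, variants kept only with over 10 reads, mCherry proximal and sfGFP distal, peptide attached via GGGS linker.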

Sequence: PVWLSFHFFLCA
- protein stability index [1]: 0.44 ± 0.061
- protein stability index [2, 3]: 0.426 ± 0.041
- protein stability index [2, 4]: 0.48 ± 0.011
- protein stability index [2, 5]: 0.369 ± 0.019
- protein stability index [2, 6]: 0.509 ± 0.013
- protein stability index [2, 7]: 0.321 ± 0.02
- protein stability index [2, 8]: 0.332 ± 0.017
- protein stability index [2, 9]: 0.469 ± 0.0063

Sequence: QIDYSVYIFALG
- protein stability index [1]: 0.371 ± 0.026
- protein stability index [2, 3]: 0.4309 ± 0.00032
- protein stability index [2, 4]: 0.493 ± 0.036
- protein stability index [2, 5]: 0.279 ± 0.03
- protein stability index [2, 6]: 0.4672 ± 0.0007
- protein stability index [2, 7]: 0.261 ± 0.0014
- protein stability index [2, 8]: 0.302 ± 0.023
- protein stability index [2, 9]: 0.454 ± 0.0065

Sequence: QRFASFFFLHLS
- protein stability index [1]: 0.227 ± 0.0046
- protein stability index [2, 3]: 0.411 ± 0.069
- protein stability index [2, 4]: 0.504 ± 0.061
- protein stability index [2, 5]: 0.585 ± 0.012
- protein stability index [2, 6]: 0.6374 ± 0.0022
- protein stability index [2, 7]: 0.157 ± 0.028
- protein stability index [2, 8]: 0.142 ± 0.036
- protein stability index [2, 9]: 0.251 ± 0.011

Sequence: QRTNTIINKRIV
- protein stability index [1]: 0.565 ± 0.096
- protein stability index [2, 3]: 0.704 ± 0.036
- protein stability index [2, 4]: 0.753 ± 0.016
- protein stability index [2, 5]: 0.623 ± 0.028
- protein stability index [2, 6]: 0.736 ± 0.012
- protein stability index [2, 7]: 0.478 ± 0.03
- protein stability index [2, 8]: 0.477 ± 0.028
- protein stability index [2, 9]: 0.705 ± 0.041

Sequence: RALSLPPLLLVL
- protein stability index [1]: 0.423 ± 0.023
- protein stability index [2, 3]: 0.386 ± 0.013
- protein stability index [2, 4]: 0.443 ± 0.038
- protein stability index [2, 5]: 0.319 ± 0.013
- protein stability index [2, 6]: 0.48 ± 0.011
- protein stability index [2, 7]: 0.338 ± 0.029
- protein stability index [2, 8]: 0.326 ± 0.029
- protein stability index [2, 9]: 0.4351 ± 0.0017

Sequence: RCIFYHSPVLCL
- protein stability index [1]: 0.449 ± 0.02
- protein stability index [2, 3]: 0.469 ± 0.022
- protein stability index [2, 4]: 0.515 ± 0.022
- protein stability index [2, 5]: 0.399 ± 0.023
- protein stability index [2, 6]: 0.51 ± 0.0089
- protein stability index [2, 7]: 0.365 ± 0.0064
- protein stability index [2, 8]: 0.398 ± 0.018
- protein stability index [2, 9]: 0.511 ± 0.041

Sequence: RCQILSYCLLFV
- protein stability index [1]: 0.407 ± 0.012
- protein stability index [2, 3]: 0.4186 ± 0.0033
- protein stability index [2, 4]: 0.42 ± 0.017
- protein stability index [2, 5]: 0.34 ± 0.025
- protein stability index [2, 6]: 0.477 ± 0.016
- protein stability index [2, 7]: 0.381 ± 0.025
- protein stability index [2, 8]: 0.33 ± 0.024
- protein stability index [2, 9]: 0.4523 ± 0.0013

Sequence: RCSLRLRFIFVR
- protein stability index [1]: 0.166 ± 0.0029
- protein stability index [2, 3]: 0.0761 ± 0.024
- protein stability index [2, 4]: 0.0507 ± 0.018
- protein stability index [2, 5]: 0.128 ± 0.019
- protein stability index [2, 6]: 0.159 ± 0.0038
- protein stability index [2, 7]: 0.254 ± 0.024
- protein stability index [2, 8]: 0.104 ± 0.022
- protein stability index [2, 9]: 0.116 ± 0.0027

Sequence: RFFFASRYIECF
- protein stability index [1]: 0.416 ± 0.11
- protein stability index [2, 3]: 0.181 ± 0.0096
- protein stability index [2, 4]: 0.173 ± 0.027
- protein stability index [2, 5]: 0.216 ± 0.014
- protein stability index [2, 6]: 0.354 ± 0.013
- protein stability index [2, 7]: 0.187 ± 0.0019
- protein stability index [2, 8]: 0.22 ± 0.036
- protein stability index [2, 9]: 0.281 ± 0.028

Sequence: RFWFTFYLIAVF
- protein stability index [1]: 0.103 ± 0.0027
- protein stability index [2, 3]: 0.0612 ± 0.029
- protein stability index [2, 4]: 0.0779 ± 0.017
- protein stability index [2, 5]: 0.109 ± 0.031
- protein stability index [2, 6]: 0.203 ± 0.0098
- protein stability index [2, 7]: 0.0617 ± 0.016
- protein stability index [2, 8]: 0.0761 ± 0.023
- protein stability index [2, 9]: 0.163 ± 0.081

Sequence: RGWGGGTWVKMG
- protein stability index [1]: 0.3012 ± 0.0016
- protein stability index [2, 3]: 0.592 ± 0.011
- protein stability index [2, 4]: 0.72324 ± 0.00012
- protein stability index [2, 5]: 0.664 ± 0.018
- protein stability index [2, 6]: 0.767 ± 0.013
- protein stability index [2, 7]: 0.113 ± 0.019
- protein stability index [2, 8]: 0.121 ± 0.015
- protein stability index [2, 9]: 0.203 ± 0.004

Sequence: RGYSAIWGCKMN
- protein stability index [1]: 0.3812 ± 0.0021
- protein stability index [2, 3]: 0.619 ± 0.097
- protein stability index [2, 4]: 0.742 ± 0.045
- protein stability index [2, 5]: 0.654 ± 0.0072
- protein stability index [2, 6]: 0.74 ± 0.011
- protein stability index [2, 7]: 0.184 ± 0.021
- protein stability index [2, 8]: 0.228 ± 0.018
- protein stability index [2, 9]: 0.529 ± 0.077

Sequence: RIIDRVSRLIML
- protein stability index [1]: 0.543 ± 0.089
- protein stability index [2, 3]: 0.765 ± 0.026
- protein stability index [2, 4]: 0.826 ± 0.019
- protein stability index [2, 5]: 0.689 ± 0.034
- protein stability index [2, 6]: 0.765 ± 0.015
- protein stability index [2, 7]: 0.453 ± 0.021
- protein stability index [2, 8]: 0.482 ± 0.034
- protein stability index [2, 9]: 0.627 ± 0.032

Sequence: RKFRAWIRITRT
- protein stability index [1]: 0.377 ± 0.013
- protein stability index [2, 3]: 0.627 ± 0.042
- protein stability index [2, 4]: 0.725 ± 0.031
- protein stability index [2, 5]: 0.635 ± 0.022
- protein stability index [2, 6]: 0.71526 ± 0.00022
- protein stability index [2, 7]: 0.219 ± 0.01
- protein stability index [2, 8]: 0.247 ± 0.048
- protein stability index [2, 9]: 0.471 ± 0.025

Sequence: RLCKGQKYTKIN
- protein stability index [1]: 0.105 ± 0.015
- protein stability index [2, 3]: 0.597 ± 0.014
- protein stability index [2, 4]: 0.718 ± 0.02
- protein stability index [2, 5]: 0.659 ± 0.023
- protein stability index [2, 6]: 0.707 ± 0.034
- protein stability index [2, 7]: 0.0852 ± 0.02
- protein stability index [2, 8]: 0.105 ± 0.026
- protein stability index [2, 9]: 0.155 ± 0.043

Sequence: RLRWLSPMTHVG
- protein stability index [1]: 0.463 ± 0.012
- protein stability index [2, 3]: 0.634 ± 0.013
- protein stability index [2, 4]: 0.7337 ± 0.0061
- protein stability index [2, 5]: 0.666 ± 0.025
- protein stability index [2, 6]: 0.726 ± 0.024
- protein stability index [2, 7]: 0.263 ± 0.0086
- protein stability index [2, 8]: 0.286 ± 0.016
- protein stability index [2, 9]: 0.5802 ± 0.0019

Sequence: RLSGACILLSLV
- protein stability index [1]: 0.388 ± 0.081
- protein stability index [2, 3]: 0.634 ± 0.045
- protein stability index [2, 4]: 0.694 ± 0.015
- protein stability index [2, 5]: 0.553 ± 0.03
- protein stability index [2, 6]: 0.681 ± 0.0082
- protein stability index [2, 7]: 0.217 ± 0.0063
- protein stability index [2, 8]: 0.259 ± 0.022
- protein stability index [2, 9]: 0.439 ± 0.026

Sequence: RLSLCLAVLFLV
- protein stability index [1]: 0.205 ± 0.035
- protein stability index [2, 3]: 0.433 ± 0.062
- protein stability index [2, 4]: 0.574 ± 0.035
- protein stability index [2, 5]: 0.564 ± 0.035
- protein stability index [2, 6]: 0.6468 ± 0.0032
- protein stability index [2, 7]: 0.116 ± 0.0062
- protein stability index [2, 8]: 0.126 ± 0.0059
- protein stability index [2, 9]: 0.146 ± 0.009

Sequence: RPSHTSVYRLLH
- protein stability index [1]: 0.2545 ± 0.0022
- protein stability index [2, 3]: 0.553 ± 0.061
- protein stability index [2, 4]: 0.677 ± 0.054
- protein stability index [2, 5]: 0.655 ± 0.045
- protein stability index [2, 6]: 0.706 ± 0.019
- protein stability index [2, 7]: 0.114 ± 0.019
- protein stability index [2, 8]: 0.148 ± 0.0086
- protein stability index [2, 9]: 0.337 ± 0.17
